Laboratory results published in US11207404B2, “Compositions and uses” (priority 2015, dated 2021).

Experiments:
[1] = Visual assessment of adverse effect on injection site in pigs; type: in vivo; details: extra dose of 150 μg of Compound A alone; 2 pigs
Protocol: A brief adverse effect visual assessment on injection site was performed on 2 random chosen pigs by testing an extra dose of 150 μg of Compound A alone.

[2] = Antigen fragment solubility/stability (Table 1); type: physicochemical
Text: Antigen (abbreviated as “Ag” herein) fragments employed in the present invention typically have certain properties useful in conjugation. In one aspect, the antigen fragments are proteins that are stable in solution and not prone to any substantial aggregation. In another aspect the antigen fragment contains a minimum of three available amines at which conjugation can occur and have a size of less than 500 kD.
Such fragments are readily commercially available and/or can be readily made by those skilled in the ar.

Molecule	visual adverse effect of the injected site [1]	Solubility [2] [mg/mL]	Stability [2]
CCCCOc1nc(N)c2[nH]c(=O)n(CC3CCNCC3)c2n1 [Compound A]	No visual adverse effect of the injected site was observed		
Tetanus Toxoid		30	years
